Source: a protein production outcome set (Wang et al. 2014)

Experiment: label from the status in PepcDB records

Q: With “MSTDKSKTRELILNGNLYKVLFLISFPIVITNIIQAFYDLTDMFYVGKLGAMPLSALSLAGPVNFFIIAIAMGMATGSISLMSKCIGEGNFSRFSRYAGQLIVLNFVLSLFVTICAFFFIDHLLDLLGVKGELKELSRVYFYVTIFAIPIMFLSISITYILNAQGETILSMTIVLFANIVNFILDPILIFSFNMGITGAAWATLFSKLLTVVFYLFLTYRLNYGLKIHLKDLVIDIRSIKEIVNLGLPSTFGQIMVSLSFFIFNYIVIEISPKFLAAYGLTNTIISFLFLPAMGIGTGIISIVGQNLGAKKVNRVEEVLKKGFFISLAILLIINSIVIFNKQFILRLFTNDLEVLNYANNYLLLTTIGTFGYGLQQVFFGGLIGSGRTKIAMIVIFIRLWLIRLPVVFIFQYFGIMENSLGYAFIISNYLAIIILIAFTCTRYWVKPILIKKYK” as the sequence, how does the protein production read?
A: failed

Q: With “MSTFGKLFRVTTYGESHCKSVGCIVDGVPPGMSLTEADIQPQLTRRRPGQSKLSTPRDEKDRVEIQSGTEFGKTLGTPIAMMIKNEDQRPHDYSDMDKFPRPSHADFTYSEKYGIKASSGGGRASARETIGRVASGAIAEKFLAQNSNVEIVAFVTQIGEIKMNRDSFDPEFQHLLNTITREKVDSMGPIRCPDASVAGLMVKEIEKYRGNKDSIGGVVTCVVRNLPTGLGEPCFDKLEAMLAHAMLSIPASKGFEIGSGFQGVSVPGSKHNDPFYFEKETNRLRTKTNNSGGVQGGISNGENIYFSVPFKSVATISQEQKTATYDGEEGILAAKGRHDPAVTPRAIPIVEAMTALVLADALLIQKARDFSRSVVH” as the sequence, how does the protein production read?
A: not failed

Q: For “MSTGQAPEKSNFSQRCSLLSRYLKEKGSFGNINMGLARKSDLELAGKFDLKGQQNVIKKVETSETRPFKLIQKFSIGEASTSTEDKAIYIDLSEPAKVAPESGNSQLTIFFGGKVMVFNEFPEDKAKEIMEVAKEANHVAVDSKNSQSHMNLDKSNVVIPDLNEPTSSGNNEDQETGQQHQVVERIARRASLHRFFAKRKDRAVARAPYQVNQHGSHLPPKPEMVAPSIKSGQSSQHIATPPKPKAHNHMPMEVDKKEGQSSKNLELKL”, which protein production is on record?
A: failed

Q: With “MSTKTGNYISIAIFAFFGGIARAWLNSSFGFYGTFWGNIIGCFLLAFFTYLFMEFKDVRQWLTVGLGTGFVGAFTTFSTFNLDVLKNIQANVPITALIYFLSSIIFGFCFAYLGMNAGKQVGNLLRKED” as the sequence, how does the protein production read?
A: failed

Q: With “MSTKTVHYPWFKKEDIDAFFALFQNNLANFVIIAVTMIGLGFPASLVFGKVIPGVAVAVIVGNLYYAYMANRLAQKESRSDVTALSYGISTPVMFVFLFGILAPALALTGDPELAWKIGLAAAFLSGFIELLVSFTGNWVRKHLPRPAMLGALAGVAVTFIAGEMLFQVFSIPVVGLVALAIILLGVVGKVTLPFNIPPSLCAVIIGTVLAFVLGYQSANTLQDSLANIGLYPILPSLGAFEGFGYLFGPLVGLLAILLPITIYNAIETMNNVDAMAAAGDSYDVRECQAVDGVGTMIGAVFGGLFPTTVYIATVGSKWMGAGRGYSILNALVFAITAVTGVIAALSELIPLAAVAPILVFVGMSMVVTAFDPNDRKYYPAVALAMLPYVANYVMTRFNNNAGEVVQGISEGIVPLGQGAMFTAIILGAIAVCIIDKQFIKAAVFSLIGAGLSFAGFMHAPELSFNAAPDYSLGYLCIAILFSYCAFRKTSKEAVASPSTLSSKRVAS” as the sequence, how does the protein production read?
A: failed

Q: With “MSTLQRRRVNRADSGDTSSIHSSANNTKGDKIANIAVDGDDDNGTNKKIAYDPEESKLRDNINIPTLTLMEEVLLMGLRDREGYLSFWNDSISYALRGCIIIELALRGKIRILDDSARKRFDLSERLIEVIDSSKTGEVLLDETLQLMKNDEPLSISNWIDLLSGETWNLLKINYQLKQVRERLAKGLVDKGVLRTEMKNFFLFDMATHPIADASCKEAIKRRVLSVLVSRNMELSYNEYFPETTSFKIIRTLALICGSYGANVLENVLTTLEYEKRDKAISRAEEIMAQFSQYPFDLEKETELGVSVNLNKEVKEEIENNPGHDLQLEVIAGVFEVFSRMDMLL” as the sequence, how does the protein production read?
A: failed

Q: Which protein production does the source give for “MSTPDGDEKEQCFHRAIAKTSIYLDREPGNPELTVWLAINKASLAGAQGGFGALSLAKEAKSLLEGVIATSPQTLDGSAYTSLGSLYYKVPGWPIGFGDDDKAEEMLKKALEINPKGIDPNYFYGDFLAEEGRDKEAKVYLTRAMQASPRPLEHHHHHH” here?
A: failed
